# Positions count from the first letter of the chain named.
# T1: human C2 H446A (human, UniProt P06681 21-752)
# T1 sequence: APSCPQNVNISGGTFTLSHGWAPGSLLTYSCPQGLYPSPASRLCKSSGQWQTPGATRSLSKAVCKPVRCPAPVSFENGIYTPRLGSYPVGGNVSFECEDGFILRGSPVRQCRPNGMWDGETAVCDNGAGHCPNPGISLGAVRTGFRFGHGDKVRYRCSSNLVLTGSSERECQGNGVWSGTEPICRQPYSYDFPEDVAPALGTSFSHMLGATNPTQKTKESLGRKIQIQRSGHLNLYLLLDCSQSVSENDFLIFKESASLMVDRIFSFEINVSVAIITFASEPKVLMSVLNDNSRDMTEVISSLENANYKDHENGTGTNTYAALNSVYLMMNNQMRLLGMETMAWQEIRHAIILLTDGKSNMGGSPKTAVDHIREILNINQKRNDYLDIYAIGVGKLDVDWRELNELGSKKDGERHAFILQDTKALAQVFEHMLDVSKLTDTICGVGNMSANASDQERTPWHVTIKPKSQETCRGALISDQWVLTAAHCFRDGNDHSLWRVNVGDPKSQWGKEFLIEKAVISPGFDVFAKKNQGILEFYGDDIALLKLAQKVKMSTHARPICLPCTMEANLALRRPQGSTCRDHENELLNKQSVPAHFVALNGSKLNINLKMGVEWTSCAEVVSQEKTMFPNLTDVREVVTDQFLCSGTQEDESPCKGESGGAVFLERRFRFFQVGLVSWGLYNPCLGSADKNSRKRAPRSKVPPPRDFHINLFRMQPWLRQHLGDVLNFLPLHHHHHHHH
# T2: human C2 L620A (human, UniProt P06681 21-752)
# T2 sequence: T1 sequence with A426H, L600A
# B1: RF16-226 (antibody, human IgG4 S228P, lambda)
# heavy: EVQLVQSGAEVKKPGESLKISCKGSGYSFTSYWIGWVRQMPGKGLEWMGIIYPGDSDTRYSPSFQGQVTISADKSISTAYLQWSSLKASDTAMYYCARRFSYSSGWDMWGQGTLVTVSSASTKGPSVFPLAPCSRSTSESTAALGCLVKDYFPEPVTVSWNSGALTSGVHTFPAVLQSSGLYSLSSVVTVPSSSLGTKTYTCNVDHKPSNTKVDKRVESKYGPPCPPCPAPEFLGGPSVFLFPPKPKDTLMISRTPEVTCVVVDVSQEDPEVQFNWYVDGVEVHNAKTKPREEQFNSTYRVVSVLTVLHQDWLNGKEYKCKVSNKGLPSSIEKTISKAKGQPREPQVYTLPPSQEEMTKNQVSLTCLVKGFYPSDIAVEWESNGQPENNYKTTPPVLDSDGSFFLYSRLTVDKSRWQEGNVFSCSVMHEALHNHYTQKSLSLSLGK
# light: SYELTQPPSVSVSPGQTARITCSGDALTSKYVAWYQQKSGLAPLLVIYEDTRRPSGIPAKFSGSSSGSVATLTISGAHGDDEADYYCYSTDASGHQRVFGGGTKLTVLSQPKAAPSVTLFPPSSEELQANKATLVCLISDFYPGAVTVAWKADGSPVKAGVETTKPSKQSNNKYAASSYLSLTPEQWKSHRSYSCQVTHEGSTVEKTVAPTECS
# notes: pH-dependent anti-C2 antibody from a phage display library; also called WT
# What was measured:
# human C2 H446A = molecular target: T1, human C2 H446A; test: SPR, antibody captured, C2 as analyte;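 also: biacore SPR at 37 °C, anti-C2 mAbs captured via goat anti-human IgG on CM5 chips, double-referenced sensorgrams fit to a 1:1 kinetic or steady-state model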
# human C2 L620A = molecular target: T2, human C2 L620A; test: SPR, antibody captured, C2 as analyte;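 also: biacore SPR at 37 °C, anti-C2 mAbs captured via goat anti-human IgG on CM5 chips, double-referenced sensorgrams fit to a 1:1 kinetic or steady-state model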
# human FcRn/β2m = molecular target: T3, human FcRn/β2m (human, UniProt P55899 24-297; P61769 21-119); test: SPR, antibody immobilised, FcRn/β2m analyte, pH 6.0; pH 6.0
# T3 construct: Soluble FcRn/β2m injected as analyte over immobilised antibody; also called neonatal Fc receptor
# T3 sequence (P55899 24-297 limits assumed, chain 1 of 2): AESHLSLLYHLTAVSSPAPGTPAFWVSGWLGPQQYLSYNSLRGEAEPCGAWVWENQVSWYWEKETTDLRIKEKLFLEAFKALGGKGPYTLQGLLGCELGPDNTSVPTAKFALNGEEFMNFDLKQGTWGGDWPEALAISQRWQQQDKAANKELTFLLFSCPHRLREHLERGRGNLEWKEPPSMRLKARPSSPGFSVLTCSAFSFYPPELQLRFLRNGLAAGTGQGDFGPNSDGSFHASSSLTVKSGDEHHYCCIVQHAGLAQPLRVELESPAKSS
# T3 sequence (P61769 21-119 limits assumed, chain 2 of 2): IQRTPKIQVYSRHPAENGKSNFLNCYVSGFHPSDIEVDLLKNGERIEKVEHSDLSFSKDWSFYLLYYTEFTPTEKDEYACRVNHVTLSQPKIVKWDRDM
# Method: Anti-C2 mAbs (1 μg/mL at pH 5) were immobilized on a carboxylmethyldextran (CM5) sensorchip surface using standard EDC/NHS chemistry. Human and Cyno FcRn/β2m (40 μM) were prepared in running buffer (10 mM HEPES, 150 mM NaCl, 10 mM MES adjusted to either pH 6 or pH 7.3) and injected on the immobilized anti-C2 surface at concentrations ranging from 0.078 to 40 μM, prepared in two-fold dilutions in running buffer. Association and dissociation phases were monitored for 180 and 600 seconds, respectively. […] Double referenced sensorgrams were fitted to either a 1:1 kinetic model (pH 6), including a term for mass transport limitation or to a 1:1 steady state model (pH 7.3) where responses at the end of the association phase were plotted against respective concentrations.
# Binding to both human and cynomolgus monkey FcRn was tested using the SPR methods described above.
binder,measurement,setting,value
B1,Kd,human C2 H446A,16.3 nM
same,Kd,human C2 L620A,11.1 nM
same,Kd,human FcRn/β2m,3800 nM

# — patent publication US20220332804A1 (CSL INNOVATION, published 2022)
